Laboratory results: the RNAGym collection of RNA variant scans (doi:10.7554/elife.80360)

B1: Hairpin Ribozyme (parent)
chain: GUCCUCUUUCACGUGCGCGUGAAAGAGAGAAGUGAACCAGAGAAACACACGUUGUGGUAUAUUACCUGGUA

Variants of: B1
Assay: self-cleavage, relative activity (ratio to wild type); higher = more cleavage; co-transcriptional

Variant | self-cleavage
C16U G57U | 0.266
G17A C37A | 0.251
C16U G19U | 0.661
G17A G42U | 0.273
G17A G42A | 0.222
C16G A45G | 0.126
G15C A22G | 0.746
G15C A22C | 0.846
C16U U53C | 0.564
C16U U53G | 1.05
C16U U53A | 1.23
G17A C66U | 0.554
G17A C66A | 0.26
G15U U63G | 0.108
G15U U63C | 0.14
G15C G19U | 0.953
G15C G19C | 0.786
C16U C46U | 0.143
C16U A35C | 1.39
C16U A35G | 0.937
C16G C38G | 0.191
C16G C38A | 0.154
G15C A64U | 0.186
C16G A49C | 0.117

Variant | self-cleavage
G17A C65U | 0.31
G17A C65A | 0.86
C16U G29U | 0.0547
G15C C48G | 0.109
C16G C50G | 0.157
C16A G57U | 0.242
G15C U67G | 0.294
C16G | 0.774
C16U | 1.04
C16A | 0.903
C16U G32U | 0.134
C16U G32C | 0.0977
G15U | 1.08
C16A C65U | 0.242
G15C U58A | 0.751
G15C U58C | 0.974
C16A C66A | 0.108
G17A G40U | 0.203
C16U A61U | 0.256
C16A U62A | 0.199
C16A U58C | 0.937
G15C U70A | 0.848
G15U A35U | 0.842
C16A G17A | 1.02

Variant | self-cleavage
C16A G17C | 0.85
G15C A26G | 1.03
C16G A41C | 1.12
C16U A59U | 0.173
G15C A31U | 0.105
G15C A31G | 0.692
G17A A23G | 0.824
G15U A49G | 0.539
G15U G54A | 0.695
G15U G54U | 0.632
C16U C50U | 0.366
C16U A24C | 1.12
G17A C18G | 1.15
G15C C66A | 0.144
C16G U53A | 0.855
G15U A30C | 0.173
G15U A30G | 0.122
G15C G68A | 0.324
G17A A28C | 0.74
G17A A28U | 0.808
G15U C65U | 0.33
C16A U52C | 0.841
C16A U52A | 0.982
C16G A47U | 0.06

Variant | self-cleavage
C16G A44C | 0.0851
C16G A44U | 0.16
C16G G32A | 0.179
G17A C46G | 0.211
G17A C46U | 0.143
C16A A71G | 1.04
C16A A71C | 1.1
C16G U70A | 0.728
C16G U70C | 0.829
G15U G34A | 1.33
G15U G34C | 1.33
G15U A41C | 1.11
G15U A41U | 1.41
G15U G57C | 0.128
C16A G25C | 0.499
C16G U62C | 0.213
G15U G19C | 1
G17A A59G | 0.205
C16U G21C | 0.749
C16U G21U | 0.991
G17A G34A | 1.26
G17A G34U | 0.967
G17A G34C | 1.3
C16A A44U | 0.133

Variant | self-cleavage
G15U U58A | 0.831
G15C G40C | 0.125
G15C G40U | 0.23
C16A U20C | 0.956
G15U A36C | 0.839
G15U A36U | 0.606
G15U G42U | 0.369
C16G U55G | 0.247
C16G A22G | 0.828
C16U U33G | 0.148
C16G G69A | 0.225
C16G G69U | 0.196
C16U A49G | 0.659
G17A A26G | 1.01
G17A A26C | 0.75
G15U A59U | 0.0728
G15C C46A | 0.136
C16G C37U | 0.346
G15C U33C | 0.233
G15C U33G | 0.0645
C16A A23C | 0.983
C16U C65A | 1.15
C16U U55C | 0.251
G15U A45C | 0.169

Variant | self-cleavage
G15U A45G | 0.184
C16A A26C | 0.488
G15C G69C | 0.275
G15C G69A | 0.414
G15C G27A | 0.555
C16U C66U | 0.397
C16U C66G | 0.228
C16G A59C | 0.17
C16G A24G | 0.568
G15U U60G | 0.57
G15U U60A | 0.932
G15C A71U | 0.793
C16U C37G | 0.182
C16G C48U | 0.154
C16U A30G | 0.157
G15C U63G | 0.127
C16U A26U | 0.817
G15U G17A | 1.05
C16A G51U | 0.861
G17A A47U | 0.132
G17A A47C | 0.319
G15U C38G | 0.149
G15C C18A | 1.18
C16A U60G | 0.451

Variant | self-cleavage
C16A U60A | 0.767
C16A U60C | 0.836
G15U G21A | 0.872
G15U G21C | 0.829
G15U G21U | 0.868
C16G A35G | 0.797
C16G A39C | 0.374
G15U A23U | 0.918
G15U A23G | 0.87
G15U A23C | 1.14
C16U G27A | 0.536
C16G U33C | 0.188
C16G G57A | 0.0803
G15U A47U | 0.215
G15U A47C | 0.324
G15U U53G | 0.645
C16G G17U | 1.08
C16G C66A | 0.197
C16G G54C | 0.393
C16A A43C | 0.116
C16A A43G | 0.118
C16U A45C | 0.066
G15U U70G | 0.873
